Laboratory results reported in patent US20260103689.

Experiments:
[1] = tested on: SB100X Sleeping Beauty transposase (synthetic construct); assay: cell_activity; conditions: HepG2 colony-forming transposition; integrates at TA
[2] = tested on: SB100X Q124C transposase Q124C (synthetic construct); assay: cell_activity; conditions: HepG2 colony-forming transposition; hyperactive at 500 and 2500 ng plasmid

Question: Which transposition activity (colony formation, fold vs SB100X) (fold (reference)) [1] does the source give for “SB transposon pT2/Puro (puro-tagged, terminal inverted repeats)” here?
Answer: 1

Question: And the transposition activity (colony formation, fold vs SB100X) (fold vs SB100X) [2]?
Answer: 2
